The record followed here is paper PMC8221060, “Interplay between chromophore binding and domain assembly by the B12-dependent photoreceptor protein, CarH†” (Chemical Science, 2021).

For series [1], the target named is TtCarH G192Q variant (Thermus thermophilus) (UniProt Q53W62). In words: native MS; native ion mobility mass spectrometry; G192Q without AdoCbl; monomer to dimer.
Series [2] shares this target. In words: native MS; native ion mobility mass spectrometry; G192Q with increasing molar ratios of AdoCbl; monomer to dimer.
For series [3] the target is unchanged. Kind of series: stopped-flow fluorescence; quenching of protein emission (excitation at 280 nm) after rapid mixing of apo-protein with AdoCbl at saturating concentrations (≥10×); kapp of the second phase against protein concentration, fit linearly; monomer to dimer step taken as rate-limiting.
Series [4] deals with the molecule itself. The series is described as above.
Series [5] deals with the molecule itself. Kind of series: native MS; native ion mobility mass spectrometry; WT TtCarH, 10 μM apo-protein, with AdoCbl from sub-stoichiometric quantities to a two-fold excess.
Series [6] deals with the molecule itself. In words: native MS; native ion mobility mass spectrometry; WT TtCarH, 10 μM apo-protein, no B12 added; monomer to dimer.

The term stoichiometry N denotes a count of units in the complex or per binding partner. Broadly, the kon is a measure of how fast the partners come together. A higher kon goes with fast association. For the molecule “TtCarH G192Q variant (from UniProt Q53W62 1-285) (natural protein)”, the stoichiometry N in series [1] and in series [2] was 2 each time. The kon in series [3] stood at 45100 M⁻¹ s⁻¹.

B1: CarH from Thermus thermophilus (TtCarH), wild type (natural protein)
chain: MTSSGVYTIAEVEAMTGLSAEVLRQWERRYGFPKPRRTPGGHRLYSAEDVEALKTIKRWLEEGATPKAAIRRYLAQEVRPEDLGTGLLEALLRGDLAGAEALFRRGLRFWGPEGVLEHLLLPVLREVGEAWHRGEIGVAEEHLASTFLRARLQELLDLAGFPPGPPVLVTTPPGERHEIGAMLAAYHLRRKGVPALYLGPDTPLPDLRALARRLGAGTVVLSAVLSEPLRALPDGALKDLAPRVFLGGQGAGPEEARRLGAEYMEDLKGLAEALWLPRGPEKEAI
notes: CarH, B12-dependent photoreceptor and transcriptional regulator of Thermus thermophilus; Written as the monomer, which associates with itself to dimers and tetramers; The cofactor (AdoCbl or MeCbl, small molecules) was added or left out as told in each assay; also called WT TtCarH; WT
For B1, in series [4], the kon came out at 50400 ± 2300 M⁻¹ s⁻¹. Further, the “stoichiometry N” value in series [5] was found to be 4; in series [6] it was 2.
